From patent US10400022B2, “Neuropilin-1 specific binding peptide, fusion protein fused with same, and use thereof” (AJOU UNIVERSITY INDUSTRY-ACADEMIC COOPERATION FOUNDATION, priority 2015, dated 2019)

B1: VEGF165A: vascular endothelial cell growth factor-A, NRP1 ligand used as control (protein)
chain: APMAEGGGQNHHEVVKFMDVYQRSYCHPIETLVDIFQEYPDEIEYIFKPSCVPLMRCGGCCNDEGLECVPTEESNITMQIMRIKPHQGQHIGEMSFLQHNKCECRPKKDRARQENPCGPCSERRKHLFVQDPQTCKCSCKNTDSRCKARQLELNERTCRCDKPRR

Tests used:
FaDu cells = assay: Tumor tissue penetration of co-administered doxorubicin (IHC); assay type: in vivo, Balb/c nude mice; conditions: doxorubicin 10 mg/kg with 2.5 mg/kg PBS, Fc or Fc-TPP11 intravenously, 1 hour
Method: In order to examine tumor tissue penetration of a small-molecule drug co-administered with the Fc-TPP11 constructed in the above-described experiment, immunohistochemistry was performed. Specifically, each of Balb/c nude mice was injected subcutaneously with 5×10^6 FaDu cells, and after about 15 days, when the tumor volume reached about 300 to 400 mm^3, 10 mg/kg of the anticancer drug doxorubicin and 2.5 mg/kg of each of PBS, Fc and Fc-TPP11 were injected intravenously into each mouse. At 1 hour after injection, the mouse heart was perfused with PBS and perfused with 4% para-formaldehyde to fix tissue. Next, the tumor tissue was extracted and subjected to immunohistochemistry. The extracted tumor was sectioned to a thickness of 20 μm by a frozen-section method, and the blood vessels were stained with the primary antibody CD31 (BD Pharmingen) and a FITC (green fluorescence)-labeled secondary antibody recognizing the same.
According to the same method as that used for FIG. 18(A), doxorubicin and each of PBS, Fc and Fc-TPP11 were injected intravenously into mice, and the mouse heart was perfused with PBS, and the tumor tissue was extracted. […] Then, the tissue was thawed at 37° C. and centrifuged, and the fluorescence (Excitation 485 nm/emission 528 nm) of the supernatant was measured to quantify the amount of doxorubicin penetrated.

HUVEC cells [1] = assay: Wound healing assay (migration of vascular endothelial cells); assay type: cell-based, human; conditions: VEGF165A 20 ng/ml, 1 μM, 18 hours
Method: In addition to the results obtained in Examples 8(1) and 8(2), in order to examine the inhibitory activity of Fc-TPP11 against VEGF165A-induced migration of vascular endothelial cells, a wound healing assay was performed. In an experimental method, 5×10^5 HUVEC cells were seeded into each well of a 6-well plate, and then incubated in 0.5% serum EBM2 medium containing 1 μg/ml mitomycin c for 1 hour until the cells were saturated (95% or more) in the plate. The dish bottom was linearly rubbed with a yellow tip to make injury lines having a uniform width. Then, the cells were washed with PBS such that the cells were detached from the bottom. After removal of PBS, medium was added slowly to the HUVEC cells. The cells were treated with 0 or 20 ng/ml of VEGF165A, treated with each of Fc and Fc-TPP11 (1 μM), and then incubated under the conditions of 37° C. and 5% CO2. The cells were imaged with a microscope (Primo vert, Carl Zeiss co., Germany) at 0 hour and 18 hours, and the distance between both ends, measured with a computer program (AxioVision LE, Carl Zeiss co., Germany) included in the microscope, was statistically processed.

[2] = system: human umbilical vein endothelial cells (HUVECs); assay: Transwell assay of penetration of vascular endothelial cells (dextran-FITC); assay type: cell-based; conditions: 1 μM for 30 minutes (VEGF165A about 1.3 nM); dextran-FITC fluorescence in lower chamber
Method: Specifically, 5×10^4 human umbilical vein endothelial cells (HUVECs) were seeded into the upper chamber of a transwell plate (Corning) and incubated in EGM2 for 3 days under the conditions of 37° C. and 5% CO2. […] Then, 50 μl of dextran-FITC (Sigma) was added to the upper chamber. After 30 minutes, based on the principle according to which the fluorescent substance would be observed when penetration into the vascular endothelial cells was increased, the medium was sampled from the lower chamber and the fluorescence thereof was measured.

VE-cadherin = assay: Western blot of VE-cadherin in HUVEC; assay type: cell-based, human; conditions: 10 minutes
Method: Specifically, 5×10^5 HUVEC cells were seeded into each well of a 6-well plate and incubated for 24 hours, […] constant Fc region and the selected peptide that binds specifically to NRP1, for 10 minutes, followed by Western blot analysis. After SDS-PAGE, the gel was transferred to a PVDF membrane, and detection was performed using primary antibodies (SantaCruz) that recognize VE-cadherin and β-actin and using HRP-conjugated secondary antibody (SantaCruz), and analysis was performed using ImageQuant LAS4000 mini (GE Healthcare).

HUVEC cells [3] = assay: Tube formation assay in HUVEC; assay type: cell-based, human; conditions: VEGF165A 20 ng/ml, Fc-TPP11 1 μM, 8 hours
Method: VEGF165A is known to […] angiogenesis using NRP1 as a co-receptor. Based on this, as a method capable of observing angiogenesis in vitro, a tube formation assay was performed. In an experimental method, 50 μl of ECMatrix was added to a 96-well plate and polymerized at 37° C. for 2 hours. After 2 hours, HUVEC cells were suspended in EBM2 medium, mixed with VEGF165A (20 ng/ml), Fc or Fc-TPP11 (1 μM), plated on the ECMatrix at a density of 1×10^4 cells per well, and incubated for 8 hours. The incubated cells were imaged with a microscope.

HUVEC cells [4] = assay: Transwell invasion assay of vascular endothelial cells; assay type: cell-based, human; conditions: VEGF165A 20 ng/ml, 1 μM, 12 hours
Method: Additionally, in order to examine the inhibitory activity of Fc-TPP11 against VEGF165A-induced invasion of vascular endothelial cells, a transwell assay was performed. A transwell (Corning Costar, USA) having a polycarbonate membrane with a […] pore size was used. Matrigel (Corning Costar, USA) was coated on the lower layer surface of the filter at a ratio of 1:10 and polymerized for 2 hours under the conditions of 37° C. and 5% CO2, and then 5×10^4 HUVEC cells and each of Fc and Fc-TPP11 (1 μM) were seeded in EBM2 medium in the upper layer well. In addition, EBM2 medium containing VEGF165A (20 ng/ml) was added to the lower layer well. Next, the cells were incubated for 12 hours under the conditions of 37° C. and 5% CO2, and then unmoved cells in the upper layer well were removed with cotton, and the cells were fixed with 4% para-formaldehyde. Then, the cells were stained with crystal violet.

Molecule | tumor tissue penetration of doxorubicin (FaDu cells) | migration activity of vascular endothelial cells (HUVEC cells [1]) | ability to penetrate vascular endothelial cells [2] | change in VE-cadherin (VE-cadherin) | tube formation (HUVEC cells [3]) | invasion activity of vascular endothelial cells (HUVEC cells [4])
COc1cccc2c1C(=O)c1c(O)c3c(c(O)c1C2=O)C[C@@](O)(C(=O)CO)C[C@@H]3O[C@H]1C[C@H](N)[C@H](O)[C@H](C)O1 [doxorubicin] | little or no red fluorescence was observed |  |  |  |  | 
B1 |  | increased the migration activity of vascular endothelial cells | had an increased ability to penetrate vascular endothelial cells | a decrease in VE-cadherin was observed | tube formation increased | increased the invasion activity of vascular endothelial cells
